Primed or numbered codes have the meaning given here. Biotin′ = not defined here

This note sets out measurements from patent US20220363752A1 (VERSEAU THERAPEUTICS, published 2022).

The target in test [1] is T1, biotinylated human LRRC25-His protein (human, UniProt Q8N386 21-165, biotinylated (sites not given)).
T1 construct: also called Biotin LRRC25-His; biotinylated LRRC25 protein
The experiment in a line: ELISA, 20 nM antibody, biotinylated antigen on streptavidin plate. The essentials: (§1)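 Plate-bound streptavidin captured biotinylated 16- to 20-mer LRRC25 ECD overlapping peptides (2 ug/mL), with biotinylated human LRRC25-His as positive control. Chimeric anti-LRRC25 antibodies at 20 nM, 45 min at 37° C in duplicate; detection by HRP anti-human IgG and TMB at A450 nm.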

Test [2] addresses T2, LRRC25(96-115) biotin peptide (human, not fully specified; N-terminal acetyl; C-terminal GGK-Biotin; native Cys changed to Ser).
T2 construct: also called Biotin LRRC25 (96-115) peptide
T2 peptide: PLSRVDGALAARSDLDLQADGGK
The description is as above. In short, it runs like this:
as §1

For test [3], the target named is T3, LRRC25(51-69) biotin peptide (human, not fully specified; N-terminal acetyl; C-terminal GGK-Biotin).
T3 peptide: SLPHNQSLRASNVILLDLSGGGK
The experiment in a line: peptide ELISA. The essentials:
as §1

Test [4] concerns the target T4, LRRC25(66-85) biotin peptide (human, not fully specified; N-terminal acetyl; C-terminal GGK-Biotin).
T4 peptide: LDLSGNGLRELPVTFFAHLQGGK
The experiment in a line: peptide ELISA. The essentials: as §1
A general note: An ELISA detects its analyte on a solid surface through an enzyme-linked reagent.

The target in test [5] is T5, LRRC25(81-100) biotin peptide (human, not fully specified; N-terminal acetyl; C-terminal GGK-Biotin).
T5 peptide: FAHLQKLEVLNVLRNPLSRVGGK
The experiment in a line: peptide ELISA. In short, it runs like this: as §1

Test [6] deals with T6, LRRC25(141-159) biotin peptide (human, not fully specified; N-terminal acetyl; C-terminal GGK-Biotin; native Cys changed to Ser).
T6 peptide: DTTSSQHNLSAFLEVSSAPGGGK
The test can be described thus: peptide ELISA. The essentials:
as §1

In test [7] the target is T7, LRRC25(126-145) biotin peptide (human, not fully specified; N-terminal acetyl; C-terminal GGK-Biotin; native Cys changed to Ser).
T7 peptide: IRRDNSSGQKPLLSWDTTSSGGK
The experiment in a line: peptide ELISA. In short, it runs like this:
as §1

Test [8] deals with T8, LRRC25(111-130) biotin peptide (human, not fully specified; N-terminal acetyl; C-terminal GGK-Biotin; native Cys changed to Ser).
T8 peptide: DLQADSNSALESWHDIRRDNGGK
The experiment in a line: peptide ELISA. In short, it runs like this: as §1

In test [9] the target is T9, LRRC25(21-40) biotin peptide (human, not fully specified; N-terminal NH2; C-terminal GGK-Biotin; native Cys changed to Ser).
T9 peptide: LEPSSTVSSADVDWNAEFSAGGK
The test can be described thus: peptide ELISA. The essentials: as §1

The target in test [10] is T10, LRRC25(36-55) biotin peptide (human, not fully specified; N-terminal NH2; C-terminal GGK-Biotin; native Cys changed to Ser).
T10 peptide: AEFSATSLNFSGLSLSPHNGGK
The test can be described thus: peptide ELISA. The essentials: as §1

In test [11] the target is T11, LRRC25(150-165) biotin peptide (human).
T11 peptide: Ac-SAFLEVSSAPGLASATGG-{Biotin′}
The test can be described thus: peptide ELISA. In short, it runs like this:
as §1

The target in test [12] is T12, His-tagged human LRRC25 extracellular domain protein, human LRRC25-His (human, UniProt Q8N386 21-165).
T12 construct: The entry holds the extracellular domain, a GSG linker and the His tag; also called LRRC25(ECD)-HIS
T12 sequence (Q8N386 other isoform, or with tags, fused parts or gaps): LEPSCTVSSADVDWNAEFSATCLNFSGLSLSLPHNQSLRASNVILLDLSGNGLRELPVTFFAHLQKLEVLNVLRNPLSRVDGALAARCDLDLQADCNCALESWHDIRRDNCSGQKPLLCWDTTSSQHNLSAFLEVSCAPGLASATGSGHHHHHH
The experiment in a line: ELISA, antibody titrated on plate-immobilized Human LRRC25(ECD)-His, A450nm against -log [IgG] (M), left panel. Here is the method: (§2) To establish the relative binding strengths of anti-LRRC25 antibodies against human LRRC25, and their cross-reactivity with cynomolgus monkey LRRC25, antibody binding curve analyses were performed and EC50 values against plate-immobilized recombinant human and cyno LRRC25 proteins were determined.
(§3) A typical ELISA was performed by coating overnight in PBS, pH 7.4, at 4° C. in high binding microtiter wells with 1 ug/mL/100 ul per well of human LRRC25-His or cyno LRRC25-His. An anti-human LRRC25 antibody (2A3, LS Bio, LS-C174039-100) and anti-HIS-HRP (Miltenyi Biotec; 130-092-783) served as coating controls for the human and cyno LRRC25 proteins, respectively. […] Anti-LRRC25 antibodies were added (100 ul per well) at 500 nM and serially diluted 3-fold in assay buffer (1% skimmed milk in PBS, pH 7.4). The plate was incubated with gentle agitation for 1 h at room temperature. The plate was washed 3× and HRP-conjugated secondary antibody in assay buffer added [100 ul per well; goat anti-human IgG (Jackson Immunoresearch, cat #715-035-150)], and the plate was incubated as before. Antibody bound to plate-immobilized LRRC25(ECD)-HIS was determined at A450 nm using HRP substrate (3,3′,5,5′-tetramethylbenzidine (TMB); eBioscience; 00-4201-56); 100 μl/well).

The target of test [13] is T12, His-tagged human LRRC25 extracellular …. The experiment in a line: ELISA, plate-immobilized antigen. In short, it runs like this: (§4)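 Wells coated overnight at 4 °C with 1 ug/mL antigen in PBS pH 7.4. Antibodies titrated from 500 nM in 3-fold steps in 1% skimmed milk/PBS, 1 h at room temperature, then HRP anti-human IgG; TMB read at A450 nm and EC50 taken from binding curves.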

Test [14] addresses T13, His-tagged cynomolgus monkey LRRC25 extracellular domain protein, cyno LRRC25-His (cynomolgus monkey).
T13 construct: The entry holds the extracellular domain, a GSG linker and the His tag
The test can be described thus: ELISA, plate-immobilized antigen. The essentials: as §4

Test [15] addresses T5, LRRC25(81-100) biotin peptide. The test can be described thus: ELISA, 20 nM antibody, biotinylated antigen on streptavidin plate. In short, it runs like this:
as §1

In test [16] the target is T13, His-tagged cynomolgus monkey LRRC25 …. The experiment in a line: ELISA, antibody titrated on plate-immobilized Cyno LRRC25(ECD)-His, A450nm against -log [IgG] (M), right panel. Here is the method:
as §2, §3

Test [17] addresses T2, LRRC25(96-115) biotin peptide. The test can be described thus: peptide ELISA. In short, it runs like this:
as §1

T13 sequence (chain, as listed by the source limits assumed): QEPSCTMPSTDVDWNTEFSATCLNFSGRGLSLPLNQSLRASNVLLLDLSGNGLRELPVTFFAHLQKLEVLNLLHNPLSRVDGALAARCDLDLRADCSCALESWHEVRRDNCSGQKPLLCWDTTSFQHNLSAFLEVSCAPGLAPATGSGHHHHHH
T1 sequence (Q8N386 other isoform, or with tags, fused parts or gaps): as the sequence (Q8N386 other isoform, or with tags, fused parts or gaps) above

B1: anti-LRRC25 chimeric antibody 1E01 (antibody, human IgG4, V domains shown)
VH: DVQLVESGGGLVKPGGSLKLSCAASGFTFSNYAMSWVRQTPEKRLEWVASISRGGNTYYPDSVKGRFTISRDNARNILYLQMSSLRSEDTAIYYCTRGNYGSSLFAYWGQGTLVTVSA
VL: DIVLTQSPASLTVSLGQRATISCRASKSVSTSGYSYMHWYQQKPGQPPKLLIYLASNLESGVPARFSGSGSRTDFTLTIDPVEADDAATYYCQQNNEDPWTFGGGTKLEIKR
notes: also called mAb 1E01
For B1, the “absorbance (A450)” value was 1.7 A450 in test [1] and 2.56 A450 in [2]. For the same molecule, the binding result in test [3], in test [4], in test [5], in [6], in [7] and in [8] was “no binding (tested: 20 nM)” in each case. The binding result in test [9], in test [10] and in test [11] was “no binding (tested: 20 nM)” each time. Further, the EC50 (read off the curve) (as a rule, the concentration giving half of the maximal effect) in [12] is about 1 nM. Further, the EC50 (usually the concentration needed to bring the measured effect to its halfway point) in [13] turned out to be 1.3 nM; in test [14], 83.2 nM.

B2: anti-LRRC25 chimeric antibody 2D09 (antibody, human IgG4, V domains shown)
VH: QVTLKESGPGTVQPSQTLSLTCSFSGFSLSTSGMGVSWIRQSSGKGLEWLAHIYWDDDKRYNPSLKSRLTISKDTSSNQVFLRITSVDTADTATYYCARRPRDFYGGGHWYFDVWGAGTTVTVSS
VL: DVVMTQTPKSMSMSVGERVTLNCKASENVGTYVSWYQQKPEQSPKLLIYGASNRYTGVPDRFTGSGSATDFTLTISSMQAEDLADYHCGQSYNFPLTFGAGTKLELKR
notes: also called mAb 2D09; MAb 2D09
As for B2, the “absorbance (A450)” value in test [15] was determined as 0.676 A450; in [1], 2.5 A450; in [2], 0.095 A450. The “fold lower assay signal than with the biotinylated LRRC25 protein” value in test [15] was about 4 fold. For the same molecule, the “EC50 (read off the curve)” value in [12] was about 1 nM; in [16], about 0.7 nM. Further, the EC50 stood at 1.2 nM in test [13] and 0.68 nM in test [14].

B3: anti-LRRC25 chimeric antibody 3A08 (antibody, human IgG4)
heavy: DVKLVESGGGLVKPGGSLKLSCAVSGFTLSSYAMSWVRQTPEKRLEWVASISRGGSTYYPDSVKGRFTISRDNGRNILNLQMSSLRSEDTAIYYCARGGGSTMITSLFAYWGQGTLVTVSAASTKGPSVFPLAPCSRSTSESTAALGCLVKDYFPEPVTVSWNSGALTSGVHTFPAVLQSSGLYSLSSVVTVPSSSLGTKTYTCNVDHKPSNTKVDKRVESKYGPPCPPCPAPEFLGGPSVFLFPPKPKDTLMISRTPEVTCVVVDVSQEDPEVQFNWYVDGVEVHNAKTKPREEQFNSTYRWSVLTVLHQDWLNGKEYKCKVSNKGLPSSIEKTISKAKGQPREPQVYTLPPSQEEMTKNQVSLTCLVKGFYPSDIAVEWESNGQPENNYKTTPPVLDSDGSFFLYSRLTVDKSRWQEGNVFSCSVMHEALHNHYTQKSLSLSLGK
light: DIVMTQAAFSNPVTLGTSASISCRSSKSLLHSNGITYLYWYLQKPGQSPQLLIYQMSNLASGVPDRFSSSGSGTDFTLRISRVEAEDVGVYYCAQNLELPFTFGSGTKLEIKRTVAAPSVFIFPPSDEQLKSGTASVVCLLNNFYPREAKVQWKVDNALQSGNSQESVTEQDSKDSTYSLSSTLTLSKADYEKHKVYACEVTHQGLSSPVTKSFNRGEC
notes: also called mAb 3A08
With B3, the “absorbance (A450)” value in [1] amounted to 0.305 A450; in [2], 0.088 A450. Further, the binding result in [3], in test [4], in [5], in test [6], in [7] and in test [8] was “no binding (tested: 20 nM)” each time. In addition, the binding result was “no binding (tested: 20 nM)” in [17]; “no binding (tested: 20 nM)” in test [9]; “no binding (tested: 20 nM)” in [10]; “no binding (tested: 20 nM)” in test [11]; “no binding (tested: about 5e-7 M (-log [IgG] about 6.3))” in [16]. Also, the EC50 in test [13] amounted to 51.1 nM.
